Measurements from patent US20230303690A1 (published 2023).

B1: sdAb fusion 25-2015-1 (Fc fusion, not shown: a dimerising Fc or GST)
chain: QLQLVESGGGLVQAGGSLRLSCAASGSIESFSFMGWYRQAPGKQRELVAGFTGAASLSFSTYTDAVKGRFTISRDNAKNTVYLQMNSLKPEDTAVYFCNVDPWSQSWPGRYWGQGTQVTVSSGGGGSQLQLVESGGGLAQTGGSLRLSCAAAGFTFDDTATGWFRQAPGKNREGVACISSSDGRIHYIDSAKGRFTISKDNAKKTVYLQMDSLKPEDTAVYYCAAARKGSTDCQGAIWGSWGQGTQVIVSSEPKSCDKTHTCPPCPAPELLG
B2: sdAb No. 2093 (VHH, part only)
VHH: QVQLVESGGGLVQPGGSLTLSCVASGFTLDYYTVGWFRQVPGKEREGISCISSSDGSTRYADSVKGRFTISRDNAKNTMSLQMNSLKPEDTAVYYCATPGIHGTSCNTSWKYYGQGTQVTVSS
modifications: possible Fc not stated
B3: sdAb fusion 25-2015-2 (Fc fusion, not shown: a dimerising Fc or GST)
chain: QLQLVESGGGLVQAGGSLRLSCAASGSIESFSFMGWYRQAPGKQRELVAGFTGAASLSFSTYTDAVKGRFTISRDNAKNTVYLQMNSLKPEDTAVYFCNVDPWSQSWPGRYWGQGTQVTVSSGGGGSGGGGSQLQLVESGGGLAQTGGSLRLSCAAAGFTFDDTATGWFRQAPGKNREGVACISSSDGRIHYIDSAKGRFTISKDNAKKTVYLQMDSLKPEDTAVYYCAAARKGSTDCQGAIWGSWGQGTQVIVSSEPKSCDKTHTCPPCPAPELLG
B4: sdAb fusion 25-17-3 (Fc fusion, not shown: a dimerising Fc or GST)
chain: QLQLVESGGGLVQAGGSLRLSCAASGSIESFSFMGWYRQAPGKQRELVAGFTGAASLSFSTYTDAVKGRFTISRDNAKNTVYLQMNSLKPEDTAVYFCNVDPWSQSWPGRYWGQGTQVTVSSGGGGSGGGGSGGGGSQLQLVESGGGLVQPGGSLRLSCAASGLTLDGYAIGWFRQAPGKEREGLACISGSDGSTHYLDSVKGRFTISRDNGKNTMALQMNSLQFGDTAIYYCAARRGSCSGSWTYWGQGTQVTVSSEPKSCDKTHTCPPCPAPELLG
B5: sdAb fusion 25-2015-3 (Fc fusion, not shown: a dimerising Fc or GST)
chain: QLQLVESGGGLVQAGGSLRLSCAASGSIESFSFMGWYRQAPGKQRELVAGFTGAASLSFSTYTDAVKGRFTISRDNAKNTVYLQMNSLKPEDTAVYFCNVDPWSQSWPGRYWGQGTQVTVSSGGGGSGGGGSGGGGSQLQLVESGGGLAQTGGSLRLSCAAAGFTFDDTATGWFRQAPGKNREGVACISSSDGRIHYIDSAKGRFTISKDNAKKTVYLQMDSLKPEDTAVYYCAAARKGSTDCQGAIWGSWGQGTQVIVSSEPKSCDKTHTCPPCPAPELLG
B6: sdAb No. 2015 (VHH, part only)
VHH: QLQLVESGGGLAQTGGSLRLSCAAAGFTFDDTATGWFRQAPGKNREGVACISSSDGRIHYIDSAKGRFTISKDNAKKTVYLQMDSLKPEDTAVYYCAAARKGSTDCQGAIWGSWGQGTQVIVSS
modifications: possible Fc not stated
B7: sdAb fusion 25-27-3 (Fc fusion, not shown: a dimerising Fc or GST)
chain: QLQLVESGGGLVQAGGSLRLSCAASGSIESFSFMGWYRQAPGKQRELVAGFTGAASLSFSTYTDAVKGRFTISRDNAKNTVYLQMNSLKPEDTAVYFCNVDPWSQSWPGRYWGQGTQVTVSSGGGGSGGGGSGGGGSQVQLVESGGGLVQPGGSLRLSCAASGFTLDYYAIGWFRQAPGKEREGVSCIRSSDGSTYYADSVKGRFTISSDNTKNTVYLQMNSLKPEDTAVYYCATDRYSDCRGPYENWGQGTQVTVSSEPKSCDKTHTCPPCPAPELLG
B8: sdAb fusion 25-17-1 (Fc fusion, not shown: a dimerising Fc or GST)
chain: QLQLVESGGGLVQAGGSLRLSCAASGSIESFSFMGWYRQAPGKQRELVAGFTGAASLSFSTYTDAVKGRFTISRDNAKNTVYLQMNSLKPEDTAVYFCNVDPWSQSWPGRYWGQGTQVTVSSGGGGSQLQLVESGGGLVQPGGSLRLSCAASGLTLDGYAIGWFRQAPGKEREGLACISGSDGSTHYLDSVKGRFTISRDNGKNTMALQMNSLQFGDTAIYYCAARRGSCSGSWTYWGQGTQVTVSS
B9: sdAb No. 2018 (VHH, part only)
VHH: QVQLVESGGGLVQPGGSLKLSCTASGFTLDYYAIAWFRQAPGKEREAVSCISSSDGSTRYADSVKGRFTISRDNAKNTVYLQMNSLKPEDTAVYYCAADPYGDCRGPYDYWGQGTQVTVSS
modifications: possible Fc not stated
B10: sdAb fusion 25-27-2 (Fc fusion, not shown: a dimerising Fc or GST)
chain: QLQLVESGGGLVQAGGSLRLSCAASGSIESFSFMGWYRQAPGKQRELVAGFTGAASLSFSTYTDAVKGRFTISRDNAKNTVYLQMNSLKPEDTAVYFCNVDPWSQSWPGRYWGQGTQVTVSSGGGGSGGGGSQVQLVESGGGLVQPGGSLRLSCAASGFTLDYYAIGWFRQAPGKEREGVSCIRSSDGSTYYADSVKGRFTISSDNTKNTVYLQMNSLKPEDTAVYYCATDRYSDCRGPYENWGQGTQVTVSSEPKSCDKTHTCPPCPAPELLG
B11: sdAb fusion 25-17-2 (Fc fusion, not shown: a dimerising Fc or GST)
chain: QLQLVESGGGLVQAGGSLRLSCAASGSIESFSFMGWYRQAPGKQRELVAGFTGAASLSFSTYTDAVKGRFTISRDNAKNTVYLQMNSLKPEDTAVYFCNVDPWSQSWPGRYWGQGTQVTVSSGGGGSGGGGSQLQLVESGGGLVQPGGSLRLSCAASGLTLDGYAIGWFRQAPGKEREGLACISGSDGSTHYLDSVKGRFTISRDNGKNTMALQMNSLQFGDTAIYYCAARRGSCSGSWTYWGQGTQVTVSSEPKSCDKTHTCPPCPAPELLG

Biological target: human LAG3 expressed on cells (human) (UniProt P18627)
Sequence (P18627 23-525): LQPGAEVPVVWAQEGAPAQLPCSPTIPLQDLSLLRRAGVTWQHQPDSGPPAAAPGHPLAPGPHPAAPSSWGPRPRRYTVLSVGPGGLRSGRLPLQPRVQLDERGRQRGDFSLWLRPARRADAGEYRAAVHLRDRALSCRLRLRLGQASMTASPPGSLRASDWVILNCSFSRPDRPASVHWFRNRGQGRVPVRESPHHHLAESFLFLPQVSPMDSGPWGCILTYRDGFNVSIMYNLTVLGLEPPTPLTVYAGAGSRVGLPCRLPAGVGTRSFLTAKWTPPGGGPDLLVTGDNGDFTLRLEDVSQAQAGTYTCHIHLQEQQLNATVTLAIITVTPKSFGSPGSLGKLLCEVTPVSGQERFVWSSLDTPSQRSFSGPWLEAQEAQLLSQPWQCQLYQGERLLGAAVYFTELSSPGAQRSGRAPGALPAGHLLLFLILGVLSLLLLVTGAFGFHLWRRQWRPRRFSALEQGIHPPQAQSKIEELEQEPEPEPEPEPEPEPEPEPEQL
Experiment: cell-based or functional assay

Row | Binder | Efficacy (Normalized to BMS) [%] | IL-2, % of BMS, at 0.001016105 ug/mL [%] | IL-2, % of BMS, at 0.003048316 ug/mL [%] | IL-2, % of BMS, at 0.009144947 ug/mL [%] | IL-2, % of BMS, at 0.027434842 ug/mL [%] | IL-2, % of BMS, at 0.082304527 ug/mL [%] | IL-2, % of BMS, at 0.24691358 ug/mL [%] | IL-2, % of BMS, at 0.740740741 ug/mL [%] | IL-2, % of BMS, at 2.222222222 ug/mL [%] | IL-2, % of BMS, at 6.666666667 ug/mL [%] | IL-2, % of BMS, at 20 ug/mL [%] | Jurkat T-hLAG3 Assay EC50 [nM] | also measured
1 | B1 | 114 | 0.000292 | 10.8 | 7.32 | 30.4 | 10.4 | 35.6 | 59.7 | 97.5 | 112 | 117 | 8.01 | 
2 | B2 |  |  |  |  |  |  |  |  |  |  |  |  | IL-2, % of BMS, at 0.005080526 ug/mL: -0.00098%; IL-2, % of BMS, at 0.015241579 ug/mL: -3.19%; IL-2, % of BMS, at 0.045724737 ug/mL: 5.73%; IL-2, % of BMS, at 0.137174211 ug/mL: 0.267%; IL-2, % of BMS, at 0.411522634 ug/mL: 1.04%; IL-2, % of BMS, at 1.234567901 ug/mL: 4%; IL-2, % of BMS, at 3.703703704 ug/mL: 14.9%; IL-2, % of BMS, at 11.11111111 ug/mL: 20%; IL-2, % of BMS, at 33.33333333 ug/mL: 14.4%; IL-2, % of BMS, at 100 ug/mL: 22.2%
3 | B3 | 101 | 0.000334 | -15.6 | -12.5 | 20.8 | -0.802 | 20.9 | 59.4 | 83.2 | 88.3 | 96.6 | 5.13 | 
4 | B4 | 102 | 0.000639 | 5.71 | 7.44 | 8.91 | 11.7 | 12.1 | 28.9 | 62.8 | 93.2 | 103 | 18.4 | 
5 | B5 | 113 | 0 | 10.7 | 7.28 | 30.2 | 10.3 | 35.4 | 59.3 | 96.8 | 112 | 116 | 8.01 | 
6 | B6 |  |  |  |  |  |  |  |  |  |  |  |  | IL-2, % of BMS, at 0.005080526 ug/mL: 0.0179%; IL-2, % of BMS, at 0.015241579 ug/mL: 1.06%; IL-2, % of BMS, at 0.045724737 ug/mL: 0.925%; IL-2, % of BMS, at 0.137174211 ug/mL: 1.92%; IL-2, % of BMS, at 0.411522634 ug/mL: 1.8%; IL-2, % of BMS, at 1.234567901 ug/mL: 10.6%; IL-2, % of BMS, at 3.703703704 ug/mL: 19.1%; IL-2, % of BMS, at 11.11111111 ug/mL: 33.6%; IL-2, % of BMS, at 33.33333333 ug/mL: 39.8%; IL-2, % of BMS, at 100 ug/mL: 46.6%
7 | B7 |  | 0.0673 | -5.25 | 2.64 | -8.9 | -0.289 | 3.53 | 17 | 58.4 | 120 | 168 |  | 
8 | B8 | 106 | 0.0133 | 4.1 | -0.836 | -2.73 | -5.85 | 6.88 | 34 | 82.7 | 89.2 | 110 | 10.9 | 
9 | B9 |  |  |  |  |  |  |  |  |  |  |  |  | IL-2, % of BMS, at 0.005080526 ug/mL: 0.0212%; IL-2, % of BMS, at 0.015241579 ug/mL: 5.32%; IL-2, % of BMS, at 0.045724737 ug/mL: 2.83%; IL-2, % of BMS, at 0.137174211 ug/mL: 9.41%; IL-2, % of BMS, at 0.411522634 ug/mL: 15.3%; IL-2, % of BMS, at 1.234567901 ug/mL: 22.8%; IL-2, % of BMS, at 3.703703704 ug/mL: 28.6%; IL-2, % of BMS, at 11.11111111 ug/mL: 34.6%; IL-2, % of BMS, at 33.33333333 ug/mL: 36.9%; IL-2, % of BMS, at 100 ug/mL: 37%
10 | B10 | 106 | 0.0147 | 3.76 | 5.39 | 11.1 | 6.04 | 17.2 | 62 | 114 | 123 | 124 |  | 
11 | B11 | 102 | -0.00048 | -2.52 | -0.621 | 12 | -7.68 | -2.21 | 16.4 | 77.7 | 85.1 | 111 | 14 | 
